# Reference: patent publication US20250346679A1 (INVOX PHARMA, published 2025)
# Positions count from the first letter of the chain named.
# B1: FS22-172-003-AA/E05v2 (bispecific antibody, human IgG1, kappa, L234A L235A)
# heavy: EVQLVQSGAEVKRPGASVKVSCKASGYTFTSYGISWVRQAPGQGLEWMGWISAYSGGTNYAQKLQGRVTMTTDTSTSTAYMELRSLRSDDTAVYYCARDLFPTIFGVSYYYYWGQGTLVTVSSASTKGPSVFPLAPSSKSTSGGTAALGCLVKDYFPEPVTVSWNSGALTSGVHTFPAVLQSSGLYSLSSVVTVPSSSLGTQTYICNVNHKPSNTKVDKKVEPKSCDKTHTCPPCPAPEAAGGPSVFLFPPKPKDTLMISRTPEVTCVVVDVSHEDPEVKFNWYVDGVEVHNAKTKPREEQYNSTYRVVSVLTVLHQDWLNGKEYKCKVSNKALPAPIEKTISKAKGQPREPQVYTLPPSRDELPYIIPPYNQVSLTCLVKGFYPSDIAVEWESNGQPENNYKTTPPVLDSDGSFFLYSKLTVGADRWLEGNVFSCSVMHEALHNHYTQKSLSLSPG
# light: DIQMTQSPSTLSASVGDRVTITCRASQSISGRLAWYQQKPGKAPNLLIYEASNLESGVPSRFSGSGSGTEFTLTISSLQPEDFATYYCQQSYSTPRVTFGQGTKVEIKRTVAAPSVFIFPPSDEQLKSGTASVVCLLNNFYPREAKVQWKVDNALQSGNSQESVTEQDSKDSTYSLSSTLTLSKADYEKHKVYACEVTHQGLSSPVTKSFNRGEC
# B2: FS22-053-008-AA/E05v2 (bispecific antibody, human IgG1, kappa, L234A L235A)
# heavy: B1 heavy with P365N, Y366P, I367P, I368Y, P369L, P370F, Y371S, G424D, A425Y, D426W
# light: B1 light
# B3: FS22-172-003-AA/G12v2 (bispecific antibody, human IgG1, kappa, L234A L235A)
# heavy: B1 heavy
# light: DIQMTQSPSTLSASVGDRVTITCRASQSISGRLAWYQQKPGKAPNLLIYEASNLESGVPSRFSGSGSGTEFTLTISSLQPEDFATYYCQQSYSWPRTFGQGTKVEIKRTVAAPSVFIFPPSDEQLKSGTASVVCLLNNFYPREAKVQWKVDNALQSGNSQESVTEQDSKDSTYSLSSTLTLSKADYEKHKVYACEVTHQGLSSPVTKSFNRGEC
# Experiments:
# [1] = target: human CD137, cell-surface (human, UniProt Q07011 24-255); assay: cell-based or functional assay
# [2] = target: human PD-L1, cell-surface (human, UniProt Q9NZQ7 19-290); assay: cell-based or functional assay
# Sequence of human PD-L1, cell-surface (Q9NZQ7 19-290): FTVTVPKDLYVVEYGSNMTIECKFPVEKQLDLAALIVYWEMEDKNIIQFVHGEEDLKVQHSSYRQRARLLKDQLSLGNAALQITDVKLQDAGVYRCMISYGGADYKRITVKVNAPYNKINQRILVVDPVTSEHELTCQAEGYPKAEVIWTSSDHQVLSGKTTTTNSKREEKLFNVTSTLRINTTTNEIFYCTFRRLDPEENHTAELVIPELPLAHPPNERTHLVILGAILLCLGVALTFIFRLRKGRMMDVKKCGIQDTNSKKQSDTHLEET
# [3] = target: T1, cynomolgus CD137, cell-surface (cynomolgus, UniProt Q07011 24-255 (human entry)); assay: cell-based or functional assay
# T1 chain: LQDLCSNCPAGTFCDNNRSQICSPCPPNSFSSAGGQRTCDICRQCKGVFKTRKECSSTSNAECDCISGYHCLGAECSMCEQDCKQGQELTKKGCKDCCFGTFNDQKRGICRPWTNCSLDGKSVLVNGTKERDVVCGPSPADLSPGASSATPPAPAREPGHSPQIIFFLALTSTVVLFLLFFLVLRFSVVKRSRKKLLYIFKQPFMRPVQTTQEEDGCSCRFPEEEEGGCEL
# [4] = target: T2, biotinylated hPD-L1-Avi-His (Acro Biosystems, PD1-H82E5) (human, UniProt Q9NZQ7 19-238, biotinylated); assay: SPR, mAb^2 captured on Protein A chip, antigen in flow
# T2 construct: bought; also called Human PD-L1-His; not shown: Avi and His tags of the bought product
# T2 sequence (Q9NZQ7 19-238): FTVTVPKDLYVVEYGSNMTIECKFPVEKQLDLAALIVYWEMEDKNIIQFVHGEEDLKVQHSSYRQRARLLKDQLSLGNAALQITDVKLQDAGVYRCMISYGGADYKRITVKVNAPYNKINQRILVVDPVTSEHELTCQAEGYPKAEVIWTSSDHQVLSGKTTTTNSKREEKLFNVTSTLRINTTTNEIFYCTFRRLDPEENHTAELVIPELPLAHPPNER
# Experimental: (§1) Briefly, the anti-human CD137/PD-L1 mAb², diluted in HBS-EP buffer (GE Healthcare, BR100188) at 2 μg/ml, were injected individually on flows cell 2, 3 and 4 of a Protein A chip (GE Healthcare, 29127556) at 30 μl/min to achieve a final response of approximately 110 RU. Two different recombinant human PD-L1 antigens were used i.e. hPD-L1-His-Avi (see Example 1.3 for antigen details) and biotinylated hPD-L1-Avi-His (Acrobiosystems, PD-1-H82E5). Human and cynomolgus PD-L1-His (Acrobiosystems, PD-1-C52H4) antigens, diluted in HBS-EP buffer, were injected on flow cell 1, 2, 3 or 4 as appropriate at a concentration range of 81 nM to 0.037 nM with 3-fold dilutions for 4 min at 75 μl/min and then allowed to dissociate in buffer for 10 min. Regeneration was achieved by injecting 10 mM glycine-HCL pH1.5 (GE Healthcare, Human Antibody Capture Kit, BR00356) for 30 sec at a rate of 30 μl/min. Subtracted data (flow cell 2−flow cell 1, flow cell 3−flow cell 1, or flow cell 4−flow cell 1) were analysed using BIAevaluation 3.2 Software (GE Healthcare) to identify binding using the model 1:1 binding with mass transfer, with refractive index (RI) constant 0.
# [5] = target: T3, cPD-L1-His (Acro Biosystems, PD1-C52H4) (cynomolgus, UniProt Q9NZQ7 19-238 (human entry)); assay: as above
# T3 construct: bought; also called Cyno PD-L1-His; Cynomolgus PD-L1-His; not shown: His tag of the bought product
# T3 sequence (Q9NZQ7 other isoform, or with tags, fused parts or gaps): as the sequence (Q9NZQ7 19-238) above, with A33T, A34S, S62N, R68Q, Q82R, F173L, T185A, T192I, H215L counted along it
# Experimental: as §1
# hCD137-mFc-Avi = target: T4, hCD137-mFc-Avi (human; mouse, UniProt Q07011 24-186, biotin on the Avi sequence where the biotinylated form was used); assay: SPR, mAb^2 captured by anti-human Fab, antigen in flow
# T4 construct: also called human CD137-mFc-Avi; dimeric human CD137; not shown: mouse IgG2a Fc domain (mIgG2a Fc)
# T4 sequence (Q07011 24-186): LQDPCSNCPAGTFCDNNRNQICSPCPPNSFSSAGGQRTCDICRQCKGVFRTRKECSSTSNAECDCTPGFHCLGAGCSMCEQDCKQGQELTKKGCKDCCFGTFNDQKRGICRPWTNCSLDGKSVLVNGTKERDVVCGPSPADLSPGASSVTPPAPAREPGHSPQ
# Experimental: (§2) The binding of the anti-human CD137/PD-L1 mAb² to recombinant dimeric human and cynomolgus CD137 antigens was also measured by SPR using a Biacore T200 processing unit (GE Healthcare).
# (§3) Briefly, 20 μg/ml anti-human Fab antibody (GE Healthcare, Human Fab Capture kit 28958325) was coated on flow cells 1, 2, 3 and 4 of a Biacore sensor S chip CM5 (GE Healthcare, BR100530) achieving a final response of approximately 5000 RU. […] The recombinant dimeric antigens, human CD137-mFc-Avi or cynomolgus CD137-mFc-Avi (see Example 1.1 for antigen details) diluted in HBS-EP buffer, were injected on flow cell 1, 2, 3 or 4 as appropriate at a concentration range of 81 nM to 0.037 nM with 3-fold dilutions for 4 minutes at 70 μl/min and then allowed to dissociate in buffer for 10 minutes. Regeneration was achieved by injecting 10 mM glycine pH 2.1 (GE Healthcare, Human Fab Capture kit 28958325) for 60 seconds at a rate of 30 μl/min. Data analysis was performed as described in Example 9.1.
# cCD137-mFc-Avi = target: T5, cCD137-mFc-Avi (cynomolgus; mouse); assay: as above
# T5 construct: also called cynomolgus CD137-mFc-Avi; Cyno CD137-mFc-Avi; not shown: mouse IgG2a Fc domain (mIgG2a Fc)
# T5 chain: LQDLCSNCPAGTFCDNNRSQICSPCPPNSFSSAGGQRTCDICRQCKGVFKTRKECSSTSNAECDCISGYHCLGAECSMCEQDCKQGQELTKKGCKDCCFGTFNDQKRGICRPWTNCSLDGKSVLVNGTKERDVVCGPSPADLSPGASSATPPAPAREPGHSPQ
# Experimental: as §2, §3
Binder,"EC50 (nM), hIL-2 release, CD8+ T cells, donor 171115A, HEK.hPD-L1 XL [1]","EC50 (nM), hIL-2 release, CD8+ T cells, donor 171115A, MDA-MB-231 XL [1]","EC50 (nM), hIL-2 release, CD8+ T cells, donor 171115B, HEK.hPD-L1 XL [1]","EC50 (nM), hIL-2 release, CD8+ T cells, donor 171115B, MDA-MB-231 XL [1]","EC50 (nM), IFN-γ release, human MLR [2]","Emax (pg/ml), IFN-γ release, human MLR [2]","EC50 (nM) (crosslinked), mIL-2 release, DO11.10.cCD137 with HEK.cyPD-L1 [3]","Emax (pg/ml) (crosslinked), mIL-2 release, DO11.10.cCD137 with HEK.cyPD-L1 [3]",Kd [4],Kd [5],Kd (hCD137-mFc-Avi),Kd (cCD137-mFc-Avi)
B1,0.27 nM,0.02 nM,0.19 nM,0.02 nM,0.03 nM,2650 pg/mL,0.08 nM,10500 pg/mL,0.5 nM,0.59 nM,1.5 nM,1 nM
B2,0.16 nM,0.01 nM,0.11 nM,0.02 nM,0.02 nM,2800 pg/mL,0.06 nM,8060 pg/mL,0.47 nM,0.58 nM,2.8 nM,1.1 nM
B3,0.21 nM,0.02 nM,0.22 nM,0.01 nM,–,–,0.06 nM,11200 pg/mL,0.49 nM,0.53 nM,2.2 nM,1.8 nM
